Test results: FireProtDB (doi:10.1016/0141-8130(95)93517-2)

Conditions: Armoracia rusticana, CD, reversible: yes, whole UniProt chain shown
[1] = pH 3.2, 22 °C, GdnHCl, glycine 50 mM
[2] = pH 3.2, 22 °C, Urea, glycine 50 mM
[3] = pH 3.2, 25 °C, GdnHCl, glycine 50 mM
[4] = pH 3.2, 25 °C, Urea, glycine 50 mM
[5] = pH 3.2, 27 °C, GdnHCl, glycine 50 mM
[6] = pH 3.2, 27 °C, Urea, glycine 50 mM
[7] = pH 3.2, 30 °C, GdnHCl, glycine 50 mM
[8] = pH 3.2, 30 °C, Urea, glycine 50 mM
[9] = pH 6.4, 22 °C, GdnHCl, sodium phosphate 2.5 mM
[10] = pH 6.4, 22 °C, Urea, sodium phosphate 2.5 mM
[11] = pH 6.4, 25 °C, GdnHCl, sodium phosphate 2.5 mM
[12] = pH 6.4, 25 °C, Urea, sodium phosphate 2.5 mM
[13] = pH 6.4, 27 °C, GdnHCl, sodium phosphate 2.5 mM
[14] = pH 6.4, 27 °C, Urea, sodium phosphate 2.5 mM
[15] = pH 6.4, 30 °C, GdnHCl, sodium phosphate 2.5 mM
[16] = pH 6.4, 30 °C, Urea, sodium phosphate 2.5 mM
[17] = pH 10, 22 °C, GdnHCl, glycine 50 mM
[18] = pH 10, 22 °C, Urea, glycine 50 mM
[19] = pH 10, 25 °C, GdnHCl, glycine 50 mM
[20] = pH 10, 25 °C, Urea, glycine 50 mM
[21] = pH 10, 27 °C, GdnHCl, glycine 50 mM
[22] = pH 10, 27 °C, Urea, glycine 50 mM
[23] = pH 10, 30 °C, GdnHCl, glycine 50 mM
[24] = pH 10, 30 °C, Urea, glycine 50 mM

B1: Peroxidase C2 wild type, P17179 (protein)
chain: MHSSSSLIKLGFLLLLLNVSLSHAQLSPSFYDKTCPQVFDIATNTIKTALRSDPRIAASILRLHFHDCFVNGCDASILLDNTTSFRTEKDAFGNARSARGFDVIDTMKAAVEKACPKTVSCADLLAIAAQKSVVLAGGPSWKVPSGRRDSLRGFMDLANDNLPGPSSTLQVLKDKFRNVGLDRPSDLVALSGGHTFGKNQCQFIMDRLYNFSNSGKPDPTLDKSYLSTLRKQCPRNGNLSVLVDFDLRTPTIFDNKYYVNLKENKGLIQSDQELFSSPDASDTIPLVRAYADGQGKFFDAFVEAMIRMGNLSPSTGKQGEIRLNCRVVNSKPKIMDVVDTNDFASSI
Protein B1 has a denaturant m value [1] of 2.86 kcal/mol/M, an unfolding free energy [1] of 6.75 kcal/mol and a denaturant m value [2] of 1.23 kcal/mol/M. The unfolding free energy [2] was 6.42 kcal/mol, the denaturant m value [3] was 2.94 kcal/mol/M and the unfolding free energy [3] was 6.25 kcal/mol. It also gave a denaturant m value [4] of 1.26 kcal/mol/M, an unfolding free energy [4] of 5.94 kcal/mol and a denaturant m value [5] of 2.99 kcal/mol/M. It also gave an unfolding free energy [5] of 5.68 kcal/mol, a denaturant m value [6] of 1.31 kcal/mol/M and an unfolding free energy [6] of 5.63 kcal/mol. For the same protein, the denaturant m value [7] was 3.2 kcal/mol/M, the unfolding free energy [7] was 4.98 kcal/mol and the denaturant m value [8] was 1.37 kcal/mol/M. For the same protein, the unfolding free energy [8] was 5.18 kcal/mol, the denaturant m value [9] was 4.75 kcal/mol/M and the unfolding free energy [9] was 6.68 kcal/mol. It also gave a denaturant m value [10] of 2.02 kcal/mol/M, an unfolding free energy [10] of 6.45 kcal/mol and a denaturant m value [11] of 4.9 kcal/mol/M. The unfolding free energy [11] was 6.38 kcal/mol, the denaturant m value [12] was 2.06 kcal/mol/M and the unfolding free energy [12] was 5.94 kcal/mol. The denaturant m value [13] was 5.08 kcal/mol/M, the unfolding free energy [13] was 6.22 kcal/mol and the denaturant m value [14] was 2.11 kcal/mol/M. The unfolding free energy [14] was 5.87 kcal/mol, the denaturant m value [15] was 5.16 kcal/mol/M and the unfolding free energy [15] was 5.62 kcal/mol. It also gave a denaturant m value [16] of 2.18 kcal/mol/M, an unfolding free energy [16] of 5.69 kcal/mol and a denaturant m value [17] of 2.85 kcal/mol/M. For the same protein, the unfolding free energy [17] was 6.7 kcal/mol, the denaturant m value [18] was 1.28 kcal/mol/M and the unfolding free energy [18] was 6.71 kcal/mol. The denaturant m value [19] was 2.99 kcal/mol/M, the unfolding free energy [19] was 6.4 kcal/mol and the denaturant m value [20] was 1.3 kcal/mol/M. It also gave an unfolding free energy [20] of 6.36 kcal/mol, a denaturant m value [21] of 3.11 kcal/mol/M and an unfolding free energy [21] of 5.87 kcal/mol. It also gave a denaturant m value [22] of 1.37 kcal/mol/M, an unfolding free energy [22] of 6.04 kcal/mol and a denaturant m value [23] of 3.17 kcal/mol/M. It also gave an unfolding free energy [23] of 5.23 kcal/mol, a denaturant m value [24] of 1.4 kcal/mol/M and an unfolding free energy [24] of 5.54 kcal/mol.
